In publication PMC7373317, “Structural basis of human full-length kindlin-3 homotrimer in an auto-inhibited state” (PLoS Biology, 2020):

Columns and labels:
[1] = target: human full-length kindlin-2, from Sf9 insect cells (monomer) (human) (UniProt Q96AC1); experiment: ITC; MicroCal PEAQ-ITC, 25 °C, 50 mM HEPES pH 7.5, 150 mM NaCl; 500 μM ITGB1 tail injected into 50 μM monomer or trimer kindlin
[2] = target: human full-length kindlin-3, wild type, from Sf9 insect cells (monomer) (human, UniProt Q86UX7 1-667); experiment: as above; settings: both partners purified
[3] = target: T1, human full-length kindlin-2, from Sf9 insect cells (monomer) (human), Q96AC1; experiment: SEC-MALS; Superdex 200 increase 5/150 GL, 20 mM HEPES pH 7.5, 500 mM NaCl, at least 2 mg/mL; settings: remark: other sources report otherwise
T1 chain: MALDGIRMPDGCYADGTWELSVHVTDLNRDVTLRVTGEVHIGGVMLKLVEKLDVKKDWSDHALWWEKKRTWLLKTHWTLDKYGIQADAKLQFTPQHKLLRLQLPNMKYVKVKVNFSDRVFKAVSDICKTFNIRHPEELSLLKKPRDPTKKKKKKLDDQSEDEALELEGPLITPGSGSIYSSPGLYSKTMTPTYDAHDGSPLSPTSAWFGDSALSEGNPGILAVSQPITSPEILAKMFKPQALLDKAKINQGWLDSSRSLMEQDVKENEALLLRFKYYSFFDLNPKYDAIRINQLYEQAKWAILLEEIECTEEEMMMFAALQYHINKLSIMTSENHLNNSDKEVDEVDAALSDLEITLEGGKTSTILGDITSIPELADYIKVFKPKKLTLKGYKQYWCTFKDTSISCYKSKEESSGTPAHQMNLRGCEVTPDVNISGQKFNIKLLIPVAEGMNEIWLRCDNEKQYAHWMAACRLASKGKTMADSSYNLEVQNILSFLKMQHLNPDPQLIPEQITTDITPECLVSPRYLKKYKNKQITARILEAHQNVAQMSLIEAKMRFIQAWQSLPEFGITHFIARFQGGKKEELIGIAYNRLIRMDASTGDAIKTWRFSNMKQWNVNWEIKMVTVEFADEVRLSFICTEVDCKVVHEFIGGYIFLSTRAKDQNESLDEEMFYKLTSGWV

[4] = target: T1, human full-length kindlin-2, from Sf9 …; experiment: SEC; analytical gel filtration, Superdex 200 Increase 10/300 GL, 20 mM Tris-HCl pH 7.5, 150 mM NaCl, calibrated with HMW kit; settings: remark: other sources report otherwise

human full-length kindlin-3, wild type, from Sf9 insect cells (monomer), sequence (Q86UX7 whole entry): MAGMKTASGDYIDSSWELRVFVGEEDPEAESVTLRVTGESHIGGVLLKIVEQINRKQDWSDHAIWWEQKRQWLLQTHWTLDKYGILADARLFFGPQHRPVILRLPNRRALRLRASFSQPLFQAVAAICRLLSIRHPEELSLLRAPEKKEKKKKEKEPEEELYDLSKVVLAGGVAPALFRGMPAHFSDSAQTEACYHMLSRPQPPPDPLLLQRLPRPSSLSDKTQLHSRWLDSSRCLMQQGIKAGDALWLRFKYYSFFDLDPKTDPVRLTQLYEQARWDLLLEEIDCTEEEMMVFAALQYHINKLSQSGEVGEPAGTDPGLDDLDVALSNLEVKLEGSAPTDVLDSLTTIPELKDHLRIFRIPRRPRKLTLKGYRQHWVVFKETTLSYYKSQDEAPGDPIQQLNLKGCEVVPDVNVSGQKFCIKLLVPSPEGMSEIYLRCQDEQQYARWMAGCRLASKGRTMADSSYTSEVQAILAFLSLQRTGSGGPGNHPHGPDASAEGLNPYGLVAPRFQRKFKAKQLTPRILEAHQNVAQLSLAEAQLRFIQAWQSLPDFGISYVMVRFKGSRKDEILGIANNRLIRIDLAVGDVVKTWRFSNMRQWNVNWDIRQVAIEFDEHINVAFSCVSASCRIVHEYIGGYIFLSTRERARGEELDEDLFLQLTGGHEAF

B1: human integrin β1 cytoplasmic tail (ITGB1 residues 773–798) (domain or fragment, UniProt P05556-1 773-798, looked up)
chain: AKWDTGENPIYKSAVTTVVNPKYEGK
notes: integrin beta-1, human, cytoplasmic tail residues 773-798; pNH-TrxT, N-terminal cleavable 6xHis thioredoxin tag; no cleavage step is described and the ITC control was the His-Trx tag alone, so the tag was probably kept (surmise); also called ITGB1 tail; integrin β1 tail
Kd [1]: 13.4 µM | Kd [2]: ~200 µM

B2: human full-length kindlin-2, from Sf9 insect cells (monomer), Q96AC1 1-680 (natural protein)
chain: MALDGIRMPDGCYADGTWELSVHVTDLNRDVTLRVTGEVHIGGVMLKLVEKLDVKKDWSDHALWWEKKRTWLLKTHWTLDKYGIQADAKLQFTPQHKLLRLQLPNMKYVKVKVNFSDRVFKAVSDICKTFNIRHPEELSLLKKPRDPTKKKKKKLDDQSEDEALELEGPLITPGSGSIYSSPGLYSKTMTPTYDAHDGSPLSPTSAWFGDSALSEGNPGILAVSQPITSPEILAKMFKPQALLDKAKINQGWLDSSRSLMEQDVKENEALLLRFKYYSFFDLNPKYDAIRINQLYEQAKWAILLEEIECTEEEMMMFAALQYHINKLSIMTSENHLNNSDKEVDEVDAALSDLEITLEGGKTSTILGDITSIPELADYIKVFKPKKLTLKGYKQYWCTFKDTSISCYKSKEESSGTPAHQMNLRGCEVTPDVNISGQKFNIKLLIPVAEGMNEIWLRCDNEKQYAHWMAACRLASKGKTMADSSYNLEVQNILSFLKMQHLNPDPQLIPEQITTDITPECLVSPRYLKKYKNKQITARILEAHQNVAQMSLIEAKMRFIQAWQSLPEFGITHFIARFQGGKKEELIGIAYNRLIRMDASTGDAIKTWRFSNMKQWNVNWEIKMVTVEFADEVRLSFICTEVDCKVVHEFIGGYIFLSTRAKDQNESLDEEMFYKLTSGWV
stoichiometry N [3]: 3 | stoichiometry N [4]: 3
